Where “and” joins values, the source holds several entries; their conditions need not be identical. Identical values can stand only once.
How the values were obtained:
human Nectin-4 = molecular target: T1, human Nectin-4 (Homo sapiens, UniProt Q96NY8); assay: Surface plasmon resonance (Biacore 8K+) binding of nectin-4 ADCs to human Nectin-4; settings: human Nectin-4, 37° C., ADC Formula XI DAR 8; n=3 mean ± SD, n=2 replicate values
T1 construct: His tag; purchased Acro Biosystems NE4-H52H3
T1 sequence (Q96NY8 32-510): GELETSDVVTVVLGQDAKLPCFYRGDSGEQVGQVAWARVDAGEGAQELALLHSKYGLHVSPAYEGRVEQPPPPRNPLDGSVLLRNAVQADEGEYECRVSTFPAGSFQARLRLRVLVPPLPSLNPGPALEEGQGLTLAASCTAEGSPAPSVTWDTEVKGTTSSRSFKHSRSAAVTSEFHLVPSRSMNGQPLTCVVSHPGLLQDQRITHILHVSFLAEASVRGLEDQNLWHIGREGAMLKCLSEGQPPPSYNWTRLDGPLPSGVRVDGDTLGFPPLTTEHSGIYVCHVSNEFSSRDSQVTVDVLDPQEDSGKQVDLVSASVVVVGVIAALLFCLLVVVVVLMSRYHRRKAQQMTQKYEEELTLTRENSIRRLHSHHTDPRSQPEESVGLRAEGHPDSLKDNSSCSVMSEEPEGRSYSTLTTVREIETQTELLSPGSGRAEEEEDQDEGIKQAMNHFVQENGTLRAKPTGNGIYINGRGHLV
Description: (§1) An anti-human Fc sensor surface was prepared by amine-coupling of goat anti-human IgG Fc (Southern Biotech Cat. No. 2014-01, Birmingham, AL) to a Biacore Series S CM4 (Cytiva Cat. No. BR-100534) sensor surface at 25° C. For immobilization, a running buffer of 10 mM HEPES, 150 mM NaCl, 0.05% Tween-20, pH 7.4 was used. Flow cells 1 & 2 of all 8 channels were activated with a 1:1 (v/v) mixture of 400 mM 1-Ethyl-3-(3-dimethylaminopropyl) carbodiimide hydrochloride (EDC) and […] N-Hydroxysuccinimide (NHS) at a flow rate of 10 uL/min for 7 minutes. Then the anti-human IgG Fc capture reagent was coupled to the sensor surface (diluted to 50 μg/mL in 10 mM Acetate pH 4.5 buffer) by injecting it in all flow cells and channels at a flow rate of 10 uL/min for 7 minutes. Remaining active groups were blocked by injecting 100 mM ethylenediamine (in 200 mM Borate buffer, pH 8.5) in all flow cells and channels at a flow rate of 10 uL/min for 7 minutes. All channels and flow cells were then preconditioned using three consecutive 1-minute injections of 75 mM phosphoric acid at 10 uL/min.
(§2) In each analysis cycle, a different ADC was captured on flow cell 2 of each channel by injecting it at 5 μg/mL and 10 uL/min. After capture, the same analyte was injected on flow cells 1 and 2 in all 8 channels for 2 minutes at 30 uL/n and dissociation was monitored for 10 minutes. After dissociation, all surfaces were regenerated with three 1-minute injections of 5 mM phosphoric acid at 10 uL/min. ADC capture and analyte cycles were repeated to obtain analyte binding of each ADC at concentrations of 0, 2.5, 7.4, 22, 67, 200 and 600 nM nectin-4.
(§3) Sensorgram data were fit globally with the default 1:1 binding model in Biacore Insight Evaluation Software v3.0.12.15655.

cyno Nectin-4 = assay: Surface plasmon resonance (Biacore 8K+) binding of nectin-4 ADCs to cyno Nectin-4; settings: cyno Nectin-4, 37° C., ADC Formula XI DAR 8, n=1
Description: as §1, §2, §3

rat Nectin-4 = assay: Surface plasmon resonance (Biacore 8K+) binding of nectin-4 ADCs to rat Nectin-4; settings: rat Nectin-4, 37° C., ADC Formula XI DAR 8, n=1
Description: as §1, §2, §3

[1] = tested on: UMUC3-Luc-GFP + UMUC3-hNectin4 clone F7; assay: Bystander killing of UMUC3-Luc-GFP cells co-cultured with UMUC3-hNectin4 clone F7 (ONE-Glo); type: cell-based, human; settings: UMUC3-hNectin-4 cloneF7/UMUC3-Luciferase-GFP 4:1, 5 days
Description: UMUC3 cell line was engineered to express human Nectin4 and two clonal populations with different levels of expression were selected. In flat white clear-bottom 96-well plates, UMUC3-hNectin4 clone F7/UMUC3-Luc-GFP cells were mixed and seeded at a total of 1500 cells/well/100 ul with a ratio of 4:1 in assay medium (MEM+1× GlutaMax+10% Heat Inactivated Fetal Bovine Serum+1 mM sodium pyruvate). UMUC3-hNectin4 clone E3/UMUC3-Luc-GFP cells were mixed and seeded at a total of 2100 cells/well/100 ul with a ratio of 6:1 in assay medium. UMUC3-Luc-GFP cells were negative for nectin-4 expression. Plates were incubated at 37° C. with 5% CO2 overnight. […] Plates were read after 5-days treatment using ONE-GloTM Luciferase Assay System. […] Luminescence was read in the SpectraMax M5e. […] Percentage of UMUC3-Luc-GFP killing was calculated against no treatment as 0%. Data was graphed and analyzed using Graphpad Prism version 9.5.1. IC50 was determined via log(inhibitor) vs. response (three parameters) curve fitting for bystander activity and log(inhibitor) vs. response (four parameters) for free payload cytotoxicity. […] In experiments run as essentially described herein, the bystander effects of four nectin-4 ADCs described herein and enfortumab vedotin were evaluated using the UMUC3-hNectin-4 cloneF7/UMUC3-Luciferase-GFP cell pair. […]

[2] = tested on: T24 mScarlet clone 5 Nectin-4 negative cells; assay: Bystander killing of T24-mScarlet clone 5 cells co-cultured with T24-human nectin4 clone108 (imaging); type: cell-based; settings: T24-mScarlet clone5 : T24-human nectin4 clone108 9:1, 5 days, ADC Formula XI DAR 8; read-out: IC50 of bystander effect
Description: T24 cell line was engineered to express mScarlet and clonally selected to test in bystander assay. T24-mScarlet clone5 and T24-human nectin4 clone108 were mixed and seeded at a total of 1000 cells/well/100 ul with a ratio of 9:1 in culture medium (McCoy's 5A+1× GlutaMax+10% Heat Inactivated Fetal Bovine Serum+400 μg/ml G418) in flat clear bottom 96-well plates. T24 mScarlet clone 5 cells were negative for nectin-4 expression. Plates were incubated at 37° C. with 5% CO2 overnight. Next day, ADCs were added at final working concentration from 50 nM, 1:4 serially diluted in culture medium. Plates were covered with Breathe-Easy® sealing membrane, placed in BioSpa and scanned in Cytation5 every day for 5 days.
Images of T24-mScarlet cells were captured and analyzed by Cytation5 with Gen5 Image Prime 3.11. Percentage of T24-mScarlet cell killing was calculated by decreased Integrated Intensity (area×mean intensity), normalized to zero hour and no treatment. Data was graphed and analyzed using GraphPad Prism version 9.5.1. IC50 was determined via log(inhibitor) vs. response-variable slope (four parameters) curve fitting.

B1: Ab1a (conjugate)
heavy: QVQLVQSGAQVKKPGASVKVSCKASGYTFTGYYIHWVRQAPGQGLEWMGWINPNSGGTNYAQKFQGRVTMTRDTSISTAYMELSRLRSDDTAVYFCAREDWDFDYWGQGTLVTVSSASTKGPSVFPLAPSSKSTSGGTAALGCLVKDYFPEPVTVSWNSGALTSGVHTFPAVLQSSGLYSLSSVVTVPSSSLGTQTYICNVNHKPSNTKVDKRVEPKSCDKTHTCPPCPAPEAAGGPSVFLFPPKPKDTLMISRTPEVTCVVVSVSHEDPEVKFNWYVDGVEVHNAKTKPREEQYNSTYRVVSVLTVLHQDWLNGKEYKCKVSNKALPAPIEKTISKAKGQPREPQVYTLPPSREEMTKNQVSLTCLVKGFYPSDIAVEWESNGQPENNYKTTPPVLDSDGSFFLYSKLTVDKSRWQQGNVFSCSVMHEALHNHYTQKSLSLSPGK
light: EIVLTQSPGTLSLSPGERATLSCRTSQSVSSSYLAWYQQKPGQAPRLLIYGASNRATDIPDRFSGSGSGTDFTLTINRLEPEDFAVYYCQQYGSSPITFGQGTRLEIKRTVAAPSVFIFPPSDEQLKSGTASVVCLLNNFYPREAKVQWKVDNALQSGNSQESVTEQDSKDSTYSLSSTLTLSKADYEKHKVYACEVTHQGLSSPVTKSFNRGEC
ka (human Nectin-4): 2.83 × 10^5, 1/Ms and 4.24 × 10^5 1/Ms
kd (human Nectin-4): 4.02 × 10^−2, 1/s and 3.08 × 10^−2 1/s
ka (cyno Nectin-4): 310000 M⁻¹ s⁻¹
kd (cyno Nectin-4): 0.026 s⁻¹
ka (rat Nectin-4): 252000 M⁻¹ s⁻¹
kd (rat Nectin-4): 0.0453 s⁻¹
Bystander effect (in words) [1]: potent bystander effects
IC50 [2]: 41 pM

Source: patent US20250000991A1, “NECTIN-4 ANTIBODIES AND ANTIBODY-DRUG CONJUGATES” (Eli Lilly and Company, priority 2023, published 2025)
